In the DeepSol protein solubility set:

assay: soluble on expression in E. coli; label from the status in PepcDB or PDB records

Soluble on expression in E. coli, soluble:
MGSSHHHHHHGSLSKQIPLGIYEKALPAGECWLERLQLAKTLGFDFVEMSVDETDERLSRLDWSREQRLALVNAIVETGVRVPSMCLSAHRRFPLGSEDDAVRAQGLEIMRKAIQFAQDVGIRVIQLAGYDVYYQEANNETRRRFRDGLKESVEMASRAQVTLAMEIMDYPLMNSISKALGYAHYLNNPWFQLYPDIGNLSAWDNDVQMELQAGIGHIVAVHVKDTKPGVFKNVPFGEGVVDFERCFETLKQSGYCGPYLIEMWSETAEDPAAEVAKARDWVKARMAKAGMVEAA
MGSSHHHHHHSSGENLYFQGMTDPAPPPTALAAAKARMRELAASYGAGLPGRDTHSLMHGLDGITLTFMPMGQRDGAYDPEHHVILINSQVRPERQRFTLAHEISHALLLGDDDLLSDLHDEYEGDRLEQVIETLCNVGAAALLMPAELIDDLLTRFGPTGRALAELARRADVSATSALYALAERTAPPVIYAVCALSRQEDEGEGGGAKELTVRASSASAGVKYSLSAGTPVPDDHPAALALDTRLPLAQDSYVPFRSGRRMPAYVDAFPERQRVLVSFALPAGRSEPDADKPEAPGDQS
MGSSHHHHHHSSGLGPGGSHMASMSDSEVNQEAKPEVKPEVKPETHINLKVSDGSSEIFFKIKKTTPLRRLMEAFAKRQGKEMDSLRFLYDGIRIQADQTPEDLDMEDNDIIEAHREQIGGSLGRACKYENPARWSEQEQAIKGVYSSWVTDNILAMARPSSELLEKYHIIDQFLSHGIKTIINLQRPGEHASCGNPLEQESGFTYLPEAFMEAGIYFYNFGWKDYGVASLTTILDMVKVMTFALQEGKVAIHCHAGLGRTGVLIACYLVFATRMTADQAIIFVRAKRPNSIQTRGQLLCVREFTQFLTPLRNIFSEGHHHHHH
MGSSHHHHHHSSGLVPRGSHMAHQDALPRLPVPPLQQSLDYYLKALQPIVSEEEWAHTKQLVDEFQTSGGVGERLQKGLERRAKKMENWLSEWWLKTAYLQFRQPVVIYSSPGVILPKQDFVDLQGQLRFAAKLIEGVLDFKSMIDNETLPVEFLGGQPLCMNQYYQILSSCRVPGPKQDSVVNFLKSKRPPTHITVVHNYQFFELDVYHSDGTPLTSDQIFVQLEKIWNSSLQSNKEPVGILTSNHRNTWAKAYNNLIKDKVNRESVNSIQKSIFTVCLDKQVPRVSDDVYRNHVAGQMLHGGGSKFNSGNRWFDKTLQFIVAEDGSCGMVYEHAAAEGPPIVALVDHVMEYTKKPELVRSPMVPLPMPKKLRFNITPEIKNDIEKAKQNLSIMIQDLDIMMLTFHHFGKDFPKSEKLSPDAFIQVALQLAYYRIYGQACATYESASLRMFHLGRTDTIRSASIDSLAFVKGMGDSTVPEQQKVELLRKAVQAHRAYTDRAIRGEAFDRHLLGLKLQAIEDLVSMPDIFMDTSYAIAMHFNLSTSQVPAKTDCVMAFGPVVPDGYGICYNPMEAHINFSVSAYNSCAETNAARMAHYLEKALLDMRTLLQNHPRAKL
MGSSHHHHHHSSGLVPRGSHMASAVVQEVSAEAQAPAVVKNPPKLALKIDRADVNQLPRNFRMGSDKYVGVTKTGIMPTRKGMDTMNVSASSCFSEKELEAILKKVPVKPSQFYDVDLRGESHGYLNGTAVSWFANHDWGNDGRTEDIIIPLEKEQLASLKGSTVKSIYRFDDKKNVILSPVYVNYNKVRTEEEMVKQHGANYFRLTLQDHFRPDDPDVDKFLEFYKSLPKDAWLHYHCYAGMGRTTIFMVMHDILKNAKDVSFDDIIQRQKLIGIVDLSEIPDKKKNYGRKAYIERYQFVQHFYDYVKENPDLKTPYSVWAKKNKVNSWEPDYNGYIWRLDTKDRNQLPRNFRTMNSAFRTDVNVKKTGKGFTPTPTRKGLDTLYMSGSAEFSNGELQAMLPVLKQQAKGPIYIMDLRQETHGVFNGNAVSWYGLRDWGNLGKNKAEVLKDENSRLNAARGKSLIVAELDKDKMPIDPKPVKIESVMTEQQLVEKNGLHYYRIAATDHIWPSAANIDEFINFTRTMPANAWLHFHCQAGAGRTTAYMAMYDMMKNPDVSLGDILSRQYLLGGNYVAYEIAKPKPDQWKADYYHQKAHMIEKFYQYVQENHADGFKTSWSQWLAAHQDV
MGSSHHHHHHSSGLVPRGSHMASEVDKRREINNEHPLLMMPLYANGEEFNQGKYTFWGGDTLTGKWENIPDDLKPYTVIQLHPDDLPKRDGAARDFYEHMLEEAAKYVNPKTGKNEPIPVILTVYTAGNMPYYTSAHWLSTSWIDKMYQKYPNLHGIFSTANYWIWANDIENKAADYLKVSAKNGGYFIWAEQNNGSAIEKAFGKNGKIAFQKSVDKYWKNLIFMFKNTPAAEGNDSTTESYMKGLWLSNHTYQWGGLMDTWKWYETGKWKLFASGNIGKSQGDRQWLTEPESMLGEEALGVYLNGGVVYNFEHPAYTYGVNNKESLLFSEVIKEFFRYVIAHPAPSKEKVLEDTKVFIHGDYSNKGNGKFFVNVNTDREQTPLYMTGRYNVIPAIPGVLKTDKLKESVSSSRIQIKEITSPEFSSTQARKEYLNKLYPMNYEGDIFAQKLDNRWFVYNYKVNENVKQTGKLKFNSLEMNVEFEPHTYGIFERISNGLKVNLNNFRTNKDSLWSNAQDANQAKKLPQLTKKGAIKWIEEHYIKDTQFGEKRVTKIVLRGIDKLPTIHSLSGTNNSYDQPSLNFDQKNHMVTITINSNGNLEFELHF
MGSSHHHHHHSSGLVPRGSHMEELQKSIGHKPEPTDEEWELIKTVTEAHVATNAQGSHWKQKRKFLPEDIGQAPIVNAPEGGKVDLEAFSHFTKIITPAITRVVDFAKKLPMFCELPCEDQIILLKGCCMEIMSLRAAVRYDPESETLTLNGEMAVTRGQLKNGGLGVVSDAIFDLGMSLSSFNLDDTEVALLQAVLLMSSDRPGLACVERIEKYQDSFLLAFEHYINYRKHHVTHFWPKLLMKVTDLRMIGACHASRFLHMKVECPTELFPPLFLEVFED
MGSSHHHHHHSSGLVPRGSHMESAIGEHLQCPRTLTRRVPDTYTPPFPMWVGRADDALQQVVMGYLGVQFRDEDQRPAALQAMRDIVAGFDLPDGPAHHDLTHHIDNQGYENLIVVGYWKDVSSQHRWSTSTPIASWWESEDRLSDGLGFFREIVAPRAEQFETLYAFQEDLPGVGAVMDGISGEINEHGYWGSMRERFPISQTDWMQASGELRVIAGDPAVGGRVVVRGHDNIALIRSGQDWADAEADERSLYLDEILPTLQSGMDFLRDNGPAVGCYSNRFVRNIDIDGNFLDLSYNIGHWASLDQLERWSESHPTHLRIFTTFFRVAAGLSKLRLYHEVSVFDAADQLYEYINCHPGTGMLRDAVTIAEH
MGSSHHHHHHSSGLVPRGSHMGSEGGPALFQSDMTFKIFIDGEVNGQKFTIVADGSSKFPHGDFNVHAVCETGKLPMSWKPICHLIQYGEPFFARYPDGISHFAQECFPEGLSIDRTVRFENDGTMTSHHTYELDDTCVVSRITVNCDGFQPDGPIMRDQLVDILPNETHMFPHGPNAVRQLAFIGFTTADGGLMMGHFDSKMTFNGSRAIEIPGPHFVTIITKQMRDTSDKRDHVCQREVAYAHSVPRITSAIGSDED
MGSSHHHHHHSSGLVPRGSHMKKRIGIVGAGTAGLHLGLFLRQHDVDVTVYTDRKPDEYSGLRLLNTVAHNAVTVQREVALDVNEWPSEEFGYFGHYYYVGGPQPMRFYGDLKAPSRAVDYRLYQPMLMRALEARGGKFCYDAVSAEDLEGLSEQYDLLVVCTGKYALGKVFEKQSENSPFEKPQRALCVGLFKGIKEAPIRAVTMSFSPGHGELIEIPTLSFNGMSTALVLENHIGSDLEVLAHTKYDDDPRAFLDLMLEKLGKHHPSVAERIDPAEFDLANSSLDILQGGVVPAFRDGHATLNNGKTIIGLGDIQATVDPVLGQGANMASYAAWILGEEILAHSVYDLRFSEHLERRRQDRVLCATRWTNFTLSALSALPPEFLAFLQILSQSREMADEFTDNFNYPERQWDRFSSPERIGQWCSQFA
MGSSHHHHHHSSGLVPRGSHMLELRLVQGSLLKKVLESIKDLVNDANFDCSSTGFSLQAMDSSHVALVSLLLRSEGFEHYRCDRNLSMGMNLGNMSKMLKCAGNDDIITIKADDGGDTVTFMFESPTQDKIADFEMKLMDIDSEHLGIPDAEYHSIVRMPSNEFSRICKDLSSIGDTVVISVTKEGVKFSTAGDIGTANIVLRQNTTVDKPEDAIVIEMKEPVSLSFALRYMNSFTKATPLSDTVTISLSSELPVVVEYKVAEMGYIRYYLAPKIE
MGSSHHHHHHSSGLVPRGSHMMIVIMDNGGQYVHRIWRTLRYLGVETKIIPNTTPLEEIKAMNPKGIIFSGGPSLENTGNCEKVLEHYDEFNVPILGICLGHQLIAKFFGGKVGRGEKAEYSLVEIEIIDEDEIFKGLPKRLKVWESHMDEVKELPPKFKILARSETCPIEAMKHEELPIYGVQFHPEVAHTEKGEEILRNFAKLCGEL
MGSSHHHHHHSSGLVPRGSHMRPHGDTAKKPIIGILMQKCRNKVMKNYGRYYIAASYVKYLESAGARVVPVRLDLTEKDYEILFKSINGILFPGGSVDLRRSDYAKVAKIFYNLSIQSFDDGDYFPVWGTCLGFEELSLLISGECLLTATDTVDVAMPLNFTGGQLHSRMFQNFPTELLLSLAVEPLTANFHKWSLSVKNFTMNEKLKKFFNVLTTNTDGKIEFISTMEGYKYPVYGVQWHPEKAPYEWKNLDGISHAPNAVKTAFYLAEFFVNEARKNNHHFKSESEEEKALIYQFSPIYTGNISSFQQCYIFD
MGSSHHHHHHSSGLVPRGSHMSGALKENSGKPSEVEYTHFKDLQALEMERGRLYETIVVTWDDSMVGNAAPIGVLCTGDDTVTLYLYQGTRTVENVLNNGRFTVNVTLDPLIFTDSTLGDLEEDMFSHYRDFLHLRGADAFFTAEVVSVKKLVKRDRFGESELHVVKARAGDVMRAESFRMALNRGIYAVIESLIAYTRAEFSDPLVLRERIAEMNRVARKVGGPREKEAMRRIIQALESKIS
MGSSHHHHHHSSGLVPRGSHMTATLGINGFGRIGRLVLRACMERNDITVVAINDPFMDVEYMAYLLKYDSVHGNFNGTVEVSGKDLCINGKVVKVFQAKDPAEIPWGASGAQIVCESTGVFTTEEKASLHLKGGAKKVIISAPPKDNVPMYVMGVNNTEYDPSKFNVISNASSTTNCLAPLAKIINDKFGIVEGLMTTVHSLTANQLTVDGPSKGGKDWRAGRCAGNNIIPASTGAAKAVGKVIPALNGKLTGMAIRVPTPDVSVVDLTCKLAKPASIEEIYQAVKEASNGPMKGIMGYTSDDVVSTDFIGCKYSSILDKNACIALNDSFVKLISWYDNESGYSNRLVDLAVYVASRGL
MGSSHHHHHHSSGLVPRGSHMVAFLRGDRRKENSDNFRTRNSILGDIINSSPATVGKAQYLTYLAQPIEPSGNYSTFAEAQKTRAPRVYVGANDGMLHGFDTDGNETFAFIPSAVFEKMHKLTARGYQGGAHQFYVDGSPVVADAFFGGAWHTVLIGSLRAGGKGLFALDVTDPANIKLLWEIGVDQEPDLGYSFPKPTVARLHNGKWAVVTGNGYSSMNDKAALLIIDMETGAITRKLEVTGRTGVPNGLSSPRLADNNSDGVADYAYAGDLQGNLWRFDLIAGKVNQDDPFSRANDGPAVASSFRVSFGGQPLYSAVDSAGAAQAITAAPSLVRHPTRKGYIVIFGTGKYFENADARADTSRAQTLYGIWDQQTKGEAAGSTPRLTRGNLQQQTLDLQADSTFASTARTIRIASQNPVNWLNNDGSTKQSGWYLDFMVNGTLKGEMLIEDMIAIGQVVLLQTITPNDDPCADGASNWTYGLDPYTGGRTSFTVFDLARQGVVDSKSDYSYNKQNVAVSGTEQKGLGGLTLSTNEQGNPEVCSSGECLTVNPGPNTRGRQNWRPIEGKN
